Assay results from patent US20220340636A1.

Molecular target: human IR-B overexpressed on NIH 3T3 mouse fibroblast cells (human) (UniProt P06213)
Assay: cell-based or functional assay

Row | Substance | fold greater efficiency of Akt phosphorylation than the PTM-free analogue | log [EC50 (nM)], Akt phosphorylation (pAkt Ser473) | fold less active than hIns, Akt phosphorylation assay
1 | sCon-Ins G1 (ligand) | 8 fold | 0.9 log nM | 
2 | Con-Ins G1 (ligand) |  | 0.78 log nM | 10 fold
